In patent US20260234211A1, “POLYPEPTIDE HAVING MODIFIED STRUCTURE AND USE THEREOF” (Guangdong Raynovent Biotech Co., Ltd., priority 2023, published 2026):

Assays:
Experiment in all cases: cell-based or functional assay
[1] = target: GLP-1 receptor (GLP-1R)
[2] = target: GCG receptor (GCGR)
[3] = target: T1, GIP receptor (GIPR)
T1 sequence (P48546 whole entry, species assumed, looked up): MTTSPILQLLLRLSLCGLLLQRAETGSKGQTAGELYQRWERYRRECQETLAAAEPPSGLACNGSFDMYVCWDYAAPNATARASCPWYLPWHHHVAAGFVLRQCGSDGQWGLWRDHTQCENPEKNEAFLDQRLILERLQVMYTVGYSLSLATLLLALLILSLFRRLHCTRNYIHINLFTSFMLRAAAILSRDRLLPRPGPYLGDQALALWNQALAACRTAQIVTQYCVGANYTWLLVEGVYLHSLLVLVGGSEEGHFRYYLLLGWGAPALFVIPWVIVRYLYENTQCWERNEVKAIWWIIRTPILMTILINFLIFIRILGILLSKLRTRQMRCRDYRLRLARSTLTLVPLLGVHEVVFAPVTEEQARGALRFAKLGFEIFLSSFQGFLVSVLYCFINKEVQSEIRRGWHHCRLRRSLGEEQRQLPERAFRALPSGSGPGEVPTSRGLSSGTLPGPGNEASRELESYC

GLP-1 EC50 (nM), cAMP assay on HEK293 cells with GLP-1R [1]	GCG EC50 (nM), cAMP assay on HEK293 cells with GCGR [2]	GIP-1 EC50 (nM), cAMP assay on CHO cells with GIPR [3]	Substance
0.001 nM	–	–	Human GLP-1 (7-37) (from UniProt P01275 21-180) (ligand)
–	0.001 nM	–	Human Glucagon (from UniProt P01275 53-81) (ligand)
0.014 nM	0.031 nM	0.001 nM	LY3437943 (peptide)
